Assay results: patent CN112225809A

Biological target: hPD1/Fc of human IgG1 (fluorescently labelled) (human) (UniProt Q15116)
Experiment: flow cytometry blocking assay: 100 ng hPD-1/hFc-FITC and antibody on SPC-A1-PDL1 cells

UniProt Q15116, sequence (Q15116 25-167 limits assumed): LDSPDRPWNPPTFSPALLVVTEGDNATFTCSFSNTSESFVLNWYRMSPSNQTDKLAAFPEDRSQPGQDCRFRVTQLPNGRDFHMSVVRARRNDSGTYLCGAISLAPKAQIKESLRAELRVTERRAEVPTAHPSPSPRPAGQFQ

B1: hUM1-30 (antibody, human IgG4 S228P, kappa, V domains shown)
VH: EVQLVESGGGLVQPGGSLRLSCAASGFTFSTYGMSWVRQAPGKGLEWVSTISGGGRYTYYPDSVKGRFTISRDNSKNTLYLQMNSLRAEDTAVYYCARQKGTTWFAHWGQGTLVTVSS
VL: DIQMTQSPSSLSASVGDRVTITCRASESVDDNGISFMNWFQQKPGKAPKLLIYAASNQGSGVPSRFSGSGSGTDFTLTISSLQPEDFATYYCQQSKEVPWTFGQGTKVEIKR
**Q.** With B1 as the binder, how does the amount of antibody that blocks the binding of PD-1 to PD-L1 read?
**A.** 1.6 µg
